Assay results reported in PMC10226595 (The Plant Cell, 2023).

B1: PHB-Delta, YFP-tagged (PHB with the START domain replaced by the 21-nt miR166 recognition site) (natural protein)
chain: MMMVHSMSRDMMNRESPDKGLDSGKYVRYTPEQVEALERVYTECPKPSSLRRQQLIRECPILSNIEPKQIKVWFQNRRCREKQRKEAARLQTVNRKLNAMNKLLMEENDRLQKQVSNLVYENGHMKHQLHTASGTTTDNSCESVVVSGQQHQQQNPNPQHQQRDAGMKPGPDVRQIAQETSGEVQYGGGRQPAVLRTFSQRLCRGFNDAVNGFVDDGWSPMGSDGAEDVTVMINLSPGKFGGSQYGNSFLPSFGSGVLCAKASMLLQNVPPAVLVRFLREHRSEWADYGVDAYAAASLRASPFAVPCARAGGFPSNQVILPLAQTVEHEESLEVVRLEGHAYSPEDMGLARDMYLLQLCSGVDENVVGGCAQLVFAPIDESFADDAPLLPSGFRIIPLEQKSTPNGASANRTLDLASALEGSTRQAGEADPNGCNFRSVLTIAFQFTFDNHSRDSVASMARQYVRSIVGSIQRVALAIAPRPGSNISPISVPTSPEALTLVRWISRSYSLHTGADLFGSDSQTSGDTLLHQLWNHSDAILCCSLKTNASPVFTFANQTGLDMLETTLVALQDIMLDKTLDEPGRKALCSEFPKIMQQGYAHLPAGVCASSMGRMVSYEQATVWKVLEDDESNHCLAFMFVNWSFV
B2: PHB-SDmut, YFP-tagged (PHB with mutated START domain) (natural protein)
chain: MMMVHSMSRDMMNRESPDKGLDSGKYVRYTPEQVEALERVYTECPKPSSLRRQQLIRECPILSNIEPKQIKVWFQNRRCREKQRKEAARLQTVNRKLNAMNKLLMEENDRLQKQVSNLVYENGHMKHQLHTASGTTTDNSCESVVVSGQQHQQQNPNPQHQQRDANNPAGLLSIAEEALAEFLSKATGTAVDWVQMIGMKPGPDSIGIVAISRNCSGIAARACGLVSLEPMKVAEILKDRPSWLRDCRSVDTLSVIPAGNGGTIELIYTQMYAPTTLAAAGAVVGAGYSTCLEDGSYVVCERSLTSATGGPTGPPSSNFVVAAGVPSGFLIRPCDGGGSILHIVDHVDLDAWSVPEVMRPLYESSKILAQKMTVAALRHVRQIAQETSGEVQYGGGRQPAVLRTFSQRLCRGFNDAVNGFVDDGWSPMGSDGAEDVTVMINLSPGKFGGSQYGNSFLPSFGSGVLCAKASMLLQNVPPAVLVRFLREHRSEWADYGVDAYAAASLRASPFAVPCARAGGFPSNQVILPLAQTVEHEESLEVVRLEGHAYSPEDMGLARDMYLLQLCSGVDENVVGGCAQLVFAPIDESFADDAPLLPSGFRIIPLEQKSTPNGASANRTLDLASALEGSTRQAGEADPNGCNFRSVLTIAFQFTFDNHSRDSVASMARQYVRSIVGSIQRVALAIAPRPGSNISPISVPTSPEALTLVRWISRSYSLHTGADLFGSDSQTSGDTLLHQLWNHSDAILCCSLKTNASPVFTFANQTGLDMLETTLVALQDIMLDKTLDEPGRKALCSEFPKIMQQGYAHLPAGVCASSMGRMVSYEQATVWKVLEDDESNHCLAFMFVNWSFV

Target: the molecule itself
Assay: single-molecule pull-down

Row | Protein | stoichiometry N
1 | B1 | 2
2 | B2 | 2
